Test results reported in patent publication EP3085709A1 (Genor Biopharma Co., Ltd, dated 2016).
Residue numbers refer to the chain shown, from its start. Numbers in names are those of the source.

T1: recombinant human RANKL (soluble, Gly136-Asp317, N-terminal 10 His, expressed in CHO cells) (human, UniProt O14788 136-317)
T1 construct: residues between secretion signal and His tag are not described; also called hRANKL; hRNAKL
T1 sequence: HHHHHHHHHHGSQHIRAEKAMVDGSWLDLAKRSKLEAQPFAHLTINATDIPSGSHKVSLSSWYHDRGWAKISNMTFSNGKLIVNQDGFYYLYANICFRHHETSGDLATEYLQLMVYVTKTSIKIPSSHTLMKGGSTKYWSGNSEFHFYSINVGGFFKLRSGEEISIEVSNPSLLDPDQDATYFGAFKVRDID

T2: monkey RANKL (cynomolgus monkey, R & D Systems) (cynomolgus monkey, UniProt A0A7N9DBU4 140-317)
T2 construct: also called cynomolgus monkey RANKL
T2 sequence: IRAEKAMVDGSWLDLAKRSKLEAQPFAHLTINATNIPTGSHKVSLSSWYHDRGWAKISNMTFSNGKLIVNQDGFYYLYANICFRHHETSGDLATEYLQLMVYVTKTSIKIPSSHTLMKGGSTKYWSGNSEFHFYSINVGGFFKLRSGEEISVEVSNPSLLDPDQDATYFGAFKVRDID

T3: mouse RANKL (R & D Systems) (mouse, UniProt O35235 158-316, limits assumed)
T3 construct: also called murine RANKL
T3 sequence (looked up): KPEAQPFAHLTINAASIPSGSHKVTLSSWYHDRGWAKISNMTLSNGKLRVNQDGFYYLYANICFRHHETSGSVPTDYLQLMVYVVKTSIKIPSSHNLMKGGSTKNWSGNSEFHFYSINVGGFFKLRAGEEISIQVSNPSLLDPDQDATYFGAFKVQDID

B1: 114-7.38.48 (antibody, V domains shown)
VH: DVQLQESGPDLVKPSQSLSLTCTVTGYSITSAYSWHWIRQFPGNKLEWMGYIHFSGVTNYNPSLKSRISITRDASKNQFFLQLSSVTTEDTATYYCATRRETGFTYWGQGTLVTVSA
VL: DIVLTQSPATLSVTPGDSVSLSCRASQSISKNLHWYQQKSHESPRLLIKYASQSISGIPSRFSGSGSGTDFTLSINSVETEDFGIYFCQQINSWPLTFGAGTKLELK
notes: Murine monoclonal antibody from hybridoma
B2: 114-7.19.12 (antibody, V domains shown)
VH: QVQLQQSGAELASPGASVKLSCKASGYTFTTYWLQWVKQRPGQGLEWIGAIYPGPGNTKYTQKFKDKATLTADKSASTAYMQLNSLTSEDSAVYYCARRGSRRGIAYWGQGTLVTVSA
VL: NIVLTQSPASLAVSLGQRATISCRASESVDSYGRSFMHWYQQRPGQPPTLLIYLASNLESGVPVRFSGSGSRTDFTLTIDPVEADDAATYYCQQDNEDPYTFGGGTKLEIK
notes: Murine monoclonal antibody purified from hybridoma supernatant
B3: 114-7.37.26 (antibody, V domains shown)
VH: B2 VH with A24T, N84S
VL: B2 VL with V64A
notes: as for B1
B4: 114-5.7.14 (antibody, V domains shown)
VH: EVQLQQSGAELVKPGASVKLSCTASGFKIKDTYMHWVRQRPEQGLEWIGRIDSANGNIKYDPKFQGKATITADTSSKTAYLHLSSLTFEDTAVYYCSRPKSNYDFWLPYWGQGTLVTVSA
VL: DIQMTQTTSSLSASLGDRVTISCSASQGISNYLNWYQQKPDGTVKLLIYYTSSLHSGVPSRFSGSGSGTDYSLTISNLEPEDIATYYCQQYSKLPLTFGAGTKLELK
notes: as for B1
B5: 114-2.222 (antibody, V domains shown)
VH: EVQLQQSGAELVKPGASVKLSCTTSGFNIKATYIHWVQQRPEQGLEWIGRIDPANGNTKYDSKFQGKATITADTSSNTAYLQLSSLTSEDTAVYFCARSLHYYVFFDYWGQGTTLTVSS
VL: DIQMTQTTSSLSASLGDRVTISCSASQGISNYLNWYQQKPDGTVKLLIYSTSSLHSGVPSRFSGSGSGTDYSLTISSLEPEDIATYYCQQYSKLPLTFGAGTKLELKR
notes: as for B1
B6: 114-5.9.4 (antibody, V domains shown)
VH: EVQLQQSGAELVKPGASVKLSCTASGFNLKGTYIHWVKQRPGQGLEWIGRIDPANANTKYDPKFQGKATIRTDTSSNTAYLQLSSLTSEDTAVYFCSSPSGHYDVWFAYWGQGTLVTVSP
VL: B5 VL with T7P, R18T, G28D, V44L, S50Y, S77N, Y91F
notes: as for B1
B7: 114-2.402 (antibody, V domains shown)
VH: EVQLQQSGTELVKPGASVKLSCTLFGFNIKATYMHWVRQRPEQGLEWIGRIDPPNGNTKYDPKFQDKATIKVDTSSNTAYLQLSSLTSEDTAVYYCAREFNRYDVWLAYWGQGTLVTVSA
VL: B5 VL with I29V, S77N, I83V, L96F, A100S, L106I
notes: as for B1
B8: 114-6.6.29 (antibody, V domains shown)
VH: DVKLVESGGGLVKPGGSLKLSCAASGFTFSSYTMSWVRQTPEKRLEWVATISSGGSYTYYPDSVKGRFTISRDNAKNTLYLQMSSLKSEDTAMYYCTRDWDYYGTTYVGGYAMDYWGQGTSVTVSS
VL: DVLMTQTPLSLPVSLGDQASISCRSSQSIVHSNGNTYLEWYLQKPGQSPKLLIYKVSNRFSGVPDRFSGSGSGTDFTLKISRVEAEDLGVYYCFQGSHVPWTFGGGTKLEIK
notes: as for B1
B9: G2 (antibody, human IgG2, kappa, V domains shown)
VH: QVQLVQSGAELKKPGASVKLSCKASGYTFTTYWLQWVRQAPGQGLEWMGAIYPGPGNTKYTQKFKDRFTITADKSKSTAYMQLNSLKSEDSAVYYCARRGSRRGIAYWGQGTLVTVSA
VL: NIVLTQSPASLSVSLGQRATISCRASESVDSYGRSFMHWYQQRPGQAPRLLIYLASNLESGVPARFSGSGSRTDFTLTISSVEAEDEATYYCQQDNEDPYTFGGGTKLEIKG
notes: 293F cells
B10: G1 (antibody, human IgG2, kappa, V domains shown)
VH: B2 VH
VL: B9 VL with S12A, A47P, R49T, A64V, S80D, S81P, E85D, E87A
notes: expressed in 293F cells; also called murine antibody G1; mouse antibody (G1)
B11: G5 (antibody, human IgG2, kappa, V domains shown)
VH: B9 VH
VL: B9 VL with R43K, R49K, A64S, S81R, E87A
notes: 293F cells
B12: G6 (antibody, human IgG2, kappa, V domains shown)
VH: B9 VH with K12V, K13Q, A40T, F68V, K74T, K76T, K87R
VL: B9 VL
notes: 293F cells
B13: G3 (antibody, human IgG2, kappa, V domains shown)
VH: B9 VH
VL: B9 VL with R43K, R49K, A64S, S81A, E87A
notes: 293F cells
B14: G7 (antibody, human IgG2, kappa, V domains shown)
VH: B9 VH with K12V, K13Q, A40T, F68V, K74T, K76T, K87R
VL: B9 VL with R43K, R49K, A64S, S81A, E87A
notes: 293F cells
B15: G9 (antibody, human IgG2, kappa, V domains shown)
VH: B9 VH with K12V, K13Q, A40T, F68V, K74T, K76T, K87R
VL: B9 VL with R43K, R49K, A64S, S81R, E87A
notes: 293F cells
B16: G11 (antibody, human IgG2, kappa, V domains shown)
VH: B9 VH with K74T
VL: B9 VL with R43K, R49K, A64S, S81A, E87A
notes: 293F cells
B17: G13 (antibody, human IgG2, kappa, V domains shown)
VH: B9 VH with K74T
VL: B9 VL with R43K, R49K, A64S, S81R, E87A
notes: 293F cells

Target: T1, recombinant human RANKL (soluble, …)
Assay: competitive ELISA, RANK-Fc coated, antibody mixed with human RANKL (0.6 µg/ml, equal volume)

| EC50 [µg/mL] | Binder |
| --- | --- |
| 0.93 | B1 |
| 0.28 | B2 |
| 0.29 | B3 |
| 0.33 | B4 |
| 0.8 | B5 |
| 0.28 | B6 |
| 0.93 | B7 |
| 0.39 | B8 |

Target: T1, recombinant human RANKL (soluble, …)
Assay: ELISA, hRANKL coated 1 µg/ml; concentration at 50% Bmax; Plate#01

| EC50 [µg/mL] | Binder |
| --- | --- |
| 0.00255 | B9 |
| 0.00147 | B10 |
| 0.00221 | B11 |
| 0.00147 | B12 |
| 0.00187 | B13 |
| 0.00182 | B14 |

Target: T1, recombinant human RANKL (soluble, …)
Assay: ELISA, hRANKL coated 1 µg/ml; concentration at 50% Bmax; Plate#02

| EC50 [µg/mL] | Binder |
| --- | --- |
| 0.00188 | B10 |
| 0.00328 | B15 |
| 0.0019 | B16 |
| 0.00234 | B17 |

Target: T1, recombinant human RANKL (soluble, …)
Assay: competitive ELISA, RANK-Fc coated, antibody pre-incubated with 0.25 µg/ml hRANKL; Plate#02

| IC50 [µg/mL] | Binder |
| --- | --- |
| ~0.35 | B10 |
| 0.5 | B15 |
| 0.19 | B16 |
| 0.31 | B17 |

Target: T1, recombinant human RANKL (soluble, …)
Assay: direct ELISA, human RANKL coated 1 µg/ml

| EC50 [µg/mL] | Binder |
| --- | --- |
| 0.0185 | B1 |
| 0.00993 | B2 |
| 0.0159 | B3 |
| 0.00623 | B4 |
| 0.0137 | B5 |
| 0.0118 | B6 |
| 0.0112 | B7 |
| 0.0117 | B8 |

Target: T1, recombinant human RANKL (soluble, …)
Assay: cell-based or functional assay

| EC50 value (ng/ml), inhibition of RAW264.7 differentiation [ng/mL] | Binder |
| --- | --- |
| 585 | B1 |
| 267 | B2 |
| 470 | B3 |
| 315 | B4 |
| 311 | B5 |
| 340 | B6 |
| 396 | B7 |
| 799 | B8 |

Target: T1, recombinant human RANKL (soluble, …)
Assay: competitive ELISA, RANK-Fc coated, antibody pre-incubated with 0.25 µg/ml hRANKL; Plate#01

| IC50 [µg/mL] | Binder |
| --- | --- |
| 0.3 | B9 |
| 0.18 | B10 |
| 0.29 | B11 |
| 0.29 | B12 |
| 0.31 | B13 |
| 0.29 | B14 |

Target: T2, monkey RANKL (cynomolgus monkey, R & D …)
Assay: direct ELISA, monkey RANKL coated

| EC50 [µg/mL] | Binder |
| --- | --- |
| 0.0198 | B1 |
| 0.0129 | B2 |
| 0.016 | B3 |
| 0.00686 | B4 |
| 0.0153 | B5 |
| 0.00967 | B6 |
| 0.0111 | B7 |
| 0.0104 | B8 |

Target: T3, mouse RANKL (R & D Systems)
Assay: direct ELISA, mouse RANKL coated 1 µg/ml

| binding result | Binder |
| --- | --- |
| no binding | B1 |
| no binding | B2 |
| no binding | B3 |
| no binding | B4 |
| no binding | B5 |
| no binding | B6 |
| no binding | B7 |
| no binding | B8 |
